One experiment concerns the target HLA-A*03:01. The experiment in a line: IEDB peptide-MHC binding, purified MHC/competitive/radioactivity; filed as Kd, often an IC50 or EC50 that approximates it; ≥ and ≤ were set here for values at or beyond the usual limits of such assays. To be noted: source organism: Vaccinia virus WR.
The next experiment has as its target HLA-A*11:01. The experiment is described as above. To be noted: source organism: Vaccinia virus WR.
A further experiment concerns the target HLA-A*29:02. The description is as above.
The next experiment deals with HLA-A*31:01. The experiment is described as above. The following applies: source organism: Vaccinia virus WR.
A further experiment deals with HLA-A*33:01. The description is as above. To be noted: source organism: Vaccinia virus WR.
The next experiment deals with HLA-A*68:01. The experiment is described as above. The following applies: source organism: Vaccinia virus WR.
The target in another experiment is HLA-A*01:01. The experiment is described as above.
Another experiment has as its target HLA-A*23:01. The experiment is described as above.
The next experiment deals with HLA-A*24:02. The experiment is described as above.
The next experiment concerns the target HLA-A*26:01. The description is as above.
A further experiment deals with HLA-A*30:02. Described as above.
The target of a further experiment is HLA-B*44:03. The experiment is described as above.
In the next experiment the target is HLA-B*58:01. The experiment in a line: IEDB peptide-MHC binding, purified MHC/direct/fluorescence; filed as Kd, often an IC50 or EC50 that approximates it; ≥ and ≤ were set here for values at or beyond the usual limits of such assays.
The target in a further experiment is HLA-B*44:02. The experiment in a line: IEDB peptide-MHC binding, purified MHC/competitive/radioactivity; filed as Kd, often an IC50 or EC50 that approximates it; ≥ and ≤ were set here for values at or beyond the usual limits of such assays.
[1] abbreviates: source organism: Lassa virus Josiah.
Where [2] appears, read: source organism: Dengue virus 4 Philippines/H241/1956.
[3] abbreviates: source organism: Mammarenavirus machupoense.
[4] abbreviates: source organism: Dengue virus 3 Sri Lanka/1266/2000.
[5] abbreviates: source organism: Dengue virus 3 Martinique/1243/1999.
[6] abbreviates: source organism: Dengue virus 4 Dominica/814669/1981.
[7] abbreviates: source organism: Dengue virus 2 Jamaica/1409/1983.
[8] abbreviates: source organism: SARS coronavirus Tor2.
Where [9] appears, read: source organism: Mammarenavirus whitewaterense.
Where [10] appears, read: source organism: Mammarenavirus guanaritoense.
[11] abbreviates: source organism: Mammarenavirus brazilense.

In general, pKd refers to the Kd on a negative log10 scale, so that one unit is a factor of ten.

pKd: −log10 of the molar value.

Take IVNNQESNKY: the pKd in the experiment with HLA-A*03:01 was 6.31; with HLA-A*11:01 it was 5.78; with HLA-A*29:02 (source organism: Vaccinia virus WR), not above 4.49; in the experiment with HLA-A*31:01 it was not above 4.28; with HLA-A*33:01, not above 4.15; with HLA-A*68:01 it was 5.12.

With KCWLVSNGSY, the pKd with HLA-A*01:01 (setting [1]) is 4.94; in the experiment with HLA-A*23:01 (setting [1]), not above 4.15; with HLA-A*24:02 (setting [1]), not above 4.15; with HLA-A*26:01 (setting [1]) it was not above 4.16; with HLA-A*29:02 (setting [1]), 5.82; with HLA-A*30:02 (setting [1]), 7.94.

For KEVALLRTYC, the pKd with HLA-B*44:03 (setting [2]) is 6.89.

As to LCEEGKVCY, the pKd was 5.11 with HLA-A*01:01 (setting [3]); not above 4.50 with HLA-A*23:01 (setting [3]); not above 4.11 in the experiment with HLA-A*24:02 (setting [3]); not above 4.11 in the experiment with HLA-A*26:01 (setting [3]); not above 4.34 in the experiment with HLA-A*29:02 (setting [3]); 4.85 in the experiment with HLA-A*30:02 (setting [3]).

Take LSNAGSNNW: the pKd in the experiment with HLA-B*58:01 (source organism: Mycobacterium tuberculosis) is 7.31.

As for MEAQLVRQM, the pKd was 7.83 in the experiment with HLA-B*44:02 (setting [4]) and 6.91 in the experiment with HLA-B*44:03 (setting [4]).

In the case of MELKYSWKT, the pKd with HLA-B*44:03 (setting [5]) was 6.46.

Consider MSPGYVLGVF, for which the pKd was 6.00 in the experiment with HLA-A*23:01 (setting [6]), 5.83 in the experiment with HLA-A*24:02 (setting [6]) and 5.80 with HLA-A*26:01 (setting [6]).

As for MYFHRRDLRL, the pKd is 7.24 in the experiment with HLA-A*23:01 (setting [7]) and 6.83 with HLA-A*24:02 (setting [7]).

With NEEKITQQM, the pKd with HLA-B*44:02 (setting [5]) is 6.24.

Consider NTIFTLTVAW, for which the pKd with HLA-A*26:01 (setting [4]) was 5.06; with HLA-B*44:02 (setting [4]), 5.14; with HLA-B*44:03 (setting [4]), not above 4.64.

With NYADRRWCF, the pKd is 7.30 with HLA-A*23:01 (setting [7]) and 7.91 in the experiment with HLA-A*24:02 (setting [7]).

Take PVSAMVRMY: the pKd was 4.94 in the experiment with HLA-A*01:01 (setting [8]); not above 4.41 in the experiment with HLA-A*23:01 (setting [8]); not above 4.39 in the experiment with HLA-A*24:02 (setting [8]); not above 4.44 with HLA-A*26:01 (setting [8]); 5.56 with HLA-A*29:02 (setting [8]); 5.04 with HLA-A*30:02 (setting [8]).

For the sequence PWLSSKPEF, the pKd in the experiment with HLA-A*23:01 (setting [2]) is 6.94.

In the case of PYVPMPCMI, the pKd was 7.38 with HLA-A*23:01 (setting [9]), 7.24 with HLA-A*24:02 (setting [9]) and not above 4.22 in the experiment with HLA-A*29:02 (setting [9]).

With QEHETSWHYD, the pKd with HLA-B*44:02 (setting [7]) is 6.80; in the experiment with HLA-B*44:03 (setting [7]), 6.13.

Turning to RDTAEAAKW, in the experiment with HLA-B*58:01 (source organism: Mycobacterium tuberculosis variant bovis), the pKd is 5.80.

For the sequence SELETPNLAE, the pKd in the experiment with HLA-B*44:03 (source organism: Dengue virus 1 Singapore/S275/1990) was 5.20.

Consider SEMGANFRAG, for which the results for the pKd in the experiment with HLA-B*44:02 (setting [2]) and with HLA-B*44:03 (setting [2]) were 7.02 and 6.06, respectively.

SFKVGHHTNF: the pKd with HLA-A*23:01 (setting [10]) is 5.88; with HLA-A*24:02 (setting [10]) it was 4.96; in the experiment with HLA-A*29:02 (setting [10]) it was 6.09.

SYKIGHHVEL: the pKd with HLA-A*23:01 (setting [9]) was 4.80; with HLA-A*24:02 (setting [9]) it was 4.89; with HLA-A*29:02 (setting [9]), not above 4.24.

Consider TERSASGGVY, for which the negative-log Kd (pKd) is 5.77 in the experiment with HLA-A*01:01 (setting [11]); not above 4.35 in the experiment with HLA-A*23:01 (setting [11]); not above 4.15 with HLA-A*24:02 (setting [11]); not above 4.26 with HLA-A*26:01 (setting [11]); not above 4.26 in the experiment with HLA-A*29:02 (setting [11]); 6.00 with HLA-A*30:02 (setting [11]).

Take TTTIKPVSY: the pKd in the experiment with HLA-A*01:01 (setting [8]) was 6.54; with HLA-A*23:01 (setting [8]), not above 4.11; with HLA-A*24:02 (setting [8]), not above 4.11; with HLA-A*26:01 (setting [8]) it was 6.44; with HLA-A*29:02 (setting [8]), 7.33; with HLA-A*30:02 (setting [8]), 6.85.

On to TVATSRTLSY, for which the pKd in the experiment with HLA-A*01:01 (setting [8]) was 6.47; with HLA-A*23:01 (setting [8]), not above 4.15; in the experiment with HLA-A*24:02 (setting [8]), not above 4.15; with HLA-A*26:01 (setting [8]), 7.11; with HLA-A*29:02 (setting [8]) it was 7.00; with HLA-A*30:02 (setting [8]), 6.09.

Turning to TWAKNIHTAI, the pKd with HLA-A*24:02 (setting [2]) is 5.70.

VAEMDGIQY: the pKd with HLA-A*01:01 (setting [8]) was 7.51; with HLA-A*23:01 (setting [8]) it was not above 4.11; with HLA-A*24:02 (setting [8]) it was not above 4.11; with HLA-A*26:01 (setting [8]), 5.90; in the experiment with HLA-A*29:02 (setting [8]), 7.23; with HLA-A*30:02 (setting [8]), 7.71.

The values above are taken from the Immune Epitope Database (IEDB).
